Experimental data: patent US8076087B2, “Galectin sequences and compositions and methods utilizing same for treating or diagnosing arthritis and other chronic inflammatory diseases” (Medical Research Fund of Tel Aviv Souraskv Medical Center, priority 2002, dated 2011)

What was measured:
[1] = test system: synovial fluid cells from RA patients; assay: Apoptosis induction, annexin V/PI flow cytometry, synovial fluid cells; type: cell-based, human; conditions: inflammatory cells from joints of arthritic patients, lowest concentration 50 ng/ml
Experimental: The assay was performed by Phosphatidyl Serine Detection Kit (IOP-116F FITC-conjugated, IQ Products, The Netherlands) using the manufacturer instructions. Human fibroblast cells from OA patients, synovial fluid cells and PBLs from RA and other arthritic patients were incubated with increasing concentrations of galectin-8 variants 1 and 2 (50-2000 ng/ml). Specific binding of annexin V was performed by the incubation of cells for 20 minutes on ice in a binding calcium buffer containing a saturating concentration of annexin V-fluorescein isothiocyanate (FITC) and propdium iodide (PI). After incubation, the cells were pelleted, and analyzed in FACS analyzer (Beckton Dickinson, San Jose, Calif.). Annexin V^+/PI^+ cells were defined as necrotic, while annexin V^+/PI^− cells were defined as apoptotic. The percent of the apoptotic cells of the total cells was determined.

[2] = test system: collagen induced arthritis (CIA); assay: Histopathological examination of rear footpad joints of CIA mice; type: in vivo, DBA/1 mice; conditions: compared with joints of arthritic mice treated with PBS or PBS+30% glycerol
Excerpt: Histopathological examination: The rear footpad joints of 5 arthritic mice that received PBS or PBS+30% glycerol (group 1, negative control), 2 arthritic mice that received anti-mouse-TNFα mAb (group 2, positive control), 3 arthritic mice that received human galectin-8 protein (group 3, positive control), 3 normal healthy mice and 5 arthritic mice that received human galectin-8 variant 1 (group 4) were sent to an accredited pathological laboratory (Patho-Lab, Kiryat Weitzmann, Rehovot) for histopathological examination.
Quantification of the arthritic changes was made subjectively based on degree of articular destruction and following evaluation of the different parameters often observed in arthritic joints. The definition of the parameters quantitated were: • 1. Cellularity within the joint: Cells present couldn't be identified due to loss of cellular morphology (decal), therefore red blood cells and leukocytes were all graded together. • 2. Presence of fibrin in the joint: Fibrin was present in apparently more acute lesions, but the amount of fibrin was proportionally small. • 3. Cartilage loss: Cartilage surfaces were evaluated in the section, slight changes of irregularity of the surface were noted. • 4. […] Synovial cell loss: Identification of synovial cells was difficult due to poor cellular morphology, but in general synovial surfaces were evaluated for integrity. • 6. […]

B1: galectin-8 variant 1: recombinant galectin-8 variant 1 polypeptide, SEQ ID NO: 6, isoform found in synovial fluid cells of arthritic patients (protein)
chain: MMLSLNNLQNIIYNPDLQSTQASSLELTEISRENVPKSGTPQLPSNRGGDISKIAPRTVYTKSKEARQSHFDLHENTTYELCVKSLPFAARLNTPMGPGRTVVVKGEVNANAKSFNVDLLAGKSKDIALHLNPRLNIKAFVRNSFLQESWGEEERNITSFPFSPGMYFEMIIYCDVREFKVAVNGVHSLEYKHRFKELSSIDTLEINGDIHLLEVRSW
[1]
  maximal apoptotic effect: approximately 100%
[2]
  recovery of joints (histopathology): recovered, most of them completely and some at least partly
